# In the supplement of paper PMC9233669:
# This sample holds only a part of the variants without activity.
# Tests used:
# biotinyl-Leu-oxazolone = assay: self-aminoacylation, catalytic enhancement (BLO) (fold over background); higher = more active; k-Seq, kA / k0A0; sequences stand for … in GGGAAUGGAUCCACAUCUACGAAUUC…UUCACUGCAGACUUGACGAAGCUG
# Method in brief: (§1)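 Working in 50 μL HEPES/NaCl/KCl/MgCl2/CaCl2 buffer with 5% acetonitrile at pH 6.9–7.0, mutagenized RNA pools (0.43 μM; 21-nt variable region) were reacted with 2–1250 μM of each biotinyl-aminoacyl-oxazolone for 90 minutes at room temperature. Streptavidin capture followed, with quantification by triplicate qPCR and Illumina sequencing. Catalytic enhancement is reported as median kA over the uncatalyzed rate, the low-activity peak of a bimodal Gaussian fit to the data.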
# biotinyl-Phe-oxazolone = assay: self-aminoacylation, catalytic enhancement (BFO) (fold over background); higher = more active; k-Seq, kA / k0A0; sequences stand for … in GGGAAUGGAUCCACAUCUACGAAUUC…UUCACUGCAGACUUGACGAAGCUG
# Method in brief: as §1
# biotinyl-Met-oxazolone = assay: self-aminoacylation, catalytic enhancement (BMO) (fold over background); higher = more active; k-Seq, kA / k0A0; sequences stand for … in GGGAAUGGAUCCACAUCUACGAAUUC…UUCACUGCAGACUUGACGAAGCUG
# Method in brief: as §1
# biotinyl-Val-oxazolone = assay: self-aminoacylation, catalytic enhancement (BVO) (fold over background); higher = more active; k-Seq, kA / k0A0; sequences stand for … in GGGAAUGGAUCCACAUCUACGAAUUC…UUCACUGCAGACUUGACGAAGCUG
# Method in brief: as §1
# biotinyl-Trp-oxazolone = assay: self-aminoacylation, catalytic enhancement (BWO) (fold over background); higher = more active; k-Seq, kA / k0A0; sequences stand for … in GGGAAUGGAUCCACAUCUACGAAUUC…UUCACUGCAGACUUGACGAAGCUG
# Method in brief: as §1
# biotinyl-Ile-oxazolone = assay: self-aminoacylation, catalytic enhancement (BIO) (fold over background); higher = more active; k-Seq, kA / k0A0; sequences stand for … in GGGAAUGGAUCCACAUCUACGAAUUC…UUCACUGCAGACUUGACGAAGCUG
# Method in brief: as §1
Sequence,self-aminoacylation (biotinyl-Leu-oxazolone),self-aminoacylation (biotinyl-Phe-oxazolone),self-aminoacylation (biotinyl-Met-oxazolone),self-aminoacylation (biotinyl-Val-oxazolone),self-aminoacylation (biotinyl-Trp-oxazolone),self-aminoacylation (biotinyl-Ile-oxazolone)
AAGUUUGCUCAUAGUCUCAAG [Fam3.1 aminoacylation ribozyme variant],0.977,1.98,0.869,0.901,0.98,0.872
AAGUUUGCUCUUAGUCGCAAG [Fam3.1 aminoacylation ribozyme variant],0.786,1.53,0.758,0.813,0.65,0.73
AAGUUUGCUGAUACUCGCAAG [Fam3.1 aminoacylation ribozyme variant],0.885,0.915,0.744,0.897,1.07,1.11
AAGUUUGCUGAUAGGCGCAAG [Fam3.1 aminoacylation ribozyme variant],0.707,2.19,1.26,0.765,0.544,0.732
AAGUUUGCUGAUAGUCGGAAG [Fam3.1 aminoacylation ribozyme variant],0.849,0.837,0.933,0.838,0.832,0.72
AAGUUUGCUGAUAGUCUCAAG [Fam3.1 aminoacylation ribozyme variant],0.963,1.94,1.01,1.13,1.28,1.11
AAGUUUGCUGGUAGUCGCAAG [Fam3.1 aminoacylation ribozyme variant],0.96,1.12,0.778,0.86,0.864,0.97
AAGUUUGCUUAUAGUGGCAAG [Fam3.1 aminoacylation ribozyme variant],0.644,1.38,0.861,0.711,0.94,0.789
AAGUUUGCUUAUGGUCGCAAG [Fam3.1 aminoacylation ribozyme variant],0.603,0.863,0.728,0.727,0.782,0.54
AAGUUUGCUUCUAGUCGCAAG [Fam3.1 aminoacylation ribozyme variant],1.2,1.54,0.998,1.23,1.11,1.39
AAGUUUGGUAAGAGUCGCAAG [Fam3.1 aminoacylation ribozyme variant],1.43,1.7,1.3,1.3,1.31,1.58
AAGUUUGGUAAUAGUCACAAG [Fam3.1 aminoacylation ribozyme variant],0.902,1.51,1.01,1.07,0.739,1.04
AAGUUUGGUAAUAGUCCCAAG [Fam3.1 aminoacylation ribozyme variant],0.963,1.39,1.05,0.864,1.04,1.32
AAGUUUGGUAAUAGUCGCUAG [Fam3.1 aminoacylation ribozyme variant],0.996,1.64,1.05,0.958,1.47,1.18
AAGUUUGUUAAUAAUCGCAAG [Fam3.1 aminoacylation ribozyme variant],0.995,1.05,0.824,0.842,0.883,0.928
AAGUUUGUUAAUACUCGCAAG [Fam3.1 aminoacylation ribozyme variant],0.76,1.07,0.692,0.81,0.7,0.893
AAGUUUGUUAAUAGUCGCAAA [Fam3.1 aminoacylation ribozyme variant],1.68,2.15,1.63,1.32,1.43,1.8
AAGUUUGUUAAUAGUCGCAAU [Fam3.1 aminoacylation ribozyme variant],1.51,2.29,1.5,1.45,1.94,1.73
AAGUUUGUUAAUAGUCUCAAG [Fam3.1 aminoacylation ribozyme variant],1.02,1.62,1.23,1.15,1.23,1.22
AAGUUUUCGAAUAGUCGCAAG [Fam3.1 aminoacylation ribozyme variant],1.86,3.28,1.82,1.81,2.24,2.14
AAGUUUUCUAAUAGUCGCAAG [Fam3.1 aminoacylation ribozyme variant],1.32,2.64,1.23,1.31,1.58,1.51
AAGUUUUCUAAUAGUCGCAGG [Fam3.1 aminoacylation ribozyme variant],1.55,3.74,1.6,1.52,2.19,1.59
AAGUUUUCUAAUAGUCGCCAG [Fam3.1 aminoacylation ribozyme variant],1.15,2.81,1.54,1.32,1.91,1.78
AAGUUUUCUAAUAGUCGCGAG [Fam3.1 aminoacylation ribozyme variant],1.88,5.94,1.84,1.71,2.99,2.02
AAUACCCCGGUCAUCGAGUGA [Fam2.1 aminoacylation ribozyme variant],5.27,27.9,4.63,3.57,5.61,3.15
